Results taken from patent US20020160516A1, “Episomal expression vector for human gene therapy and expression system for production of proteins” (priority 1993, published 2002).
In brackets after ≈: the same amount, converted by molar mass.

T1: human RB (Homo sapiens, UniProt P06400)
T1 sequence (P06400 1-928): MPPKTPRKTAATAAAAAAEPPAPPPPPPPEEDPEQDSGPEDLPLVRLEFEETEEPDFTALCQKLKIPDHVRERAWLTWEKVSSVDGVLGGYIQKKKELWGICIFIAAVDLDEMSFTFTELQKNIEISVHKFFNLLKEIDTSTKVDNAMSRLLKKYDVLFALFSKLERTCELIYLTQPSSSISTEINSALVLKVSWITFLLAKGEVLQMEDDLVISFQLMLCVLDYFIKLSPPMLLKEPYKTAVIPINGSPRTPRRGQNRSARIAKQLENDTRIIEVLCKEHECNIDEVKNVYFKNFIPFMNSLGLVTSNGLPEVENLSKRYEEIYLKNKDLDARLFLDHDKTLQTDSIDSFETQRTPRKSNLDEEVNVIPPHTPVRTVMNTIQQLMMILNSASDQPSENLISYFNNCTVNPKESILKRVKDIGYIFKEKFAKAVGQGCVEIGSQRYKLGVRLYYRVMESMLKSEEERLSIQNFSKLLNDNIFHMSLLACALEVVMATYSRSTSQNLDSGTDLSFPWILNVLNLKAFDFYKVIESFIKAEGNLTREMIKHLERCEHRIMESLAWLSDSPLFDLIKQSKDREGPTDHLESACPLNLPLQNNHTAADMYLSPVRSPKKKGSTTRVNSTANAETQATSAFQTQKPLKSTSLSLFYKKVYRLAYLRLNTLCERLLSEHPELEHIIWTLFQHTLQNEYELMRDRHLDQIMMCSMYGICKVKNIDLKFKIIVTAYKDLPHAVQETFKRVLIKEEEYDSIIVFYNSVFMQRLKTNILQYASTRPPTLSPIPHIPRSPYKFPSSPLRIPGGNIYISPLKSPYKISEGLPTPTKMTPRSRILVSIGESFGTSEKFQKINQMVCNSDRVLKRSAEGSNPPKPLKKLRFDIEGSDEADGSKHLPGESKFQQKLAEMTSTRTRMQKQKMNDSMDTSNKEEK

T2: p107 (Homo sapiens, UniProt P28749)
T2 sequence (P28749 1-1068): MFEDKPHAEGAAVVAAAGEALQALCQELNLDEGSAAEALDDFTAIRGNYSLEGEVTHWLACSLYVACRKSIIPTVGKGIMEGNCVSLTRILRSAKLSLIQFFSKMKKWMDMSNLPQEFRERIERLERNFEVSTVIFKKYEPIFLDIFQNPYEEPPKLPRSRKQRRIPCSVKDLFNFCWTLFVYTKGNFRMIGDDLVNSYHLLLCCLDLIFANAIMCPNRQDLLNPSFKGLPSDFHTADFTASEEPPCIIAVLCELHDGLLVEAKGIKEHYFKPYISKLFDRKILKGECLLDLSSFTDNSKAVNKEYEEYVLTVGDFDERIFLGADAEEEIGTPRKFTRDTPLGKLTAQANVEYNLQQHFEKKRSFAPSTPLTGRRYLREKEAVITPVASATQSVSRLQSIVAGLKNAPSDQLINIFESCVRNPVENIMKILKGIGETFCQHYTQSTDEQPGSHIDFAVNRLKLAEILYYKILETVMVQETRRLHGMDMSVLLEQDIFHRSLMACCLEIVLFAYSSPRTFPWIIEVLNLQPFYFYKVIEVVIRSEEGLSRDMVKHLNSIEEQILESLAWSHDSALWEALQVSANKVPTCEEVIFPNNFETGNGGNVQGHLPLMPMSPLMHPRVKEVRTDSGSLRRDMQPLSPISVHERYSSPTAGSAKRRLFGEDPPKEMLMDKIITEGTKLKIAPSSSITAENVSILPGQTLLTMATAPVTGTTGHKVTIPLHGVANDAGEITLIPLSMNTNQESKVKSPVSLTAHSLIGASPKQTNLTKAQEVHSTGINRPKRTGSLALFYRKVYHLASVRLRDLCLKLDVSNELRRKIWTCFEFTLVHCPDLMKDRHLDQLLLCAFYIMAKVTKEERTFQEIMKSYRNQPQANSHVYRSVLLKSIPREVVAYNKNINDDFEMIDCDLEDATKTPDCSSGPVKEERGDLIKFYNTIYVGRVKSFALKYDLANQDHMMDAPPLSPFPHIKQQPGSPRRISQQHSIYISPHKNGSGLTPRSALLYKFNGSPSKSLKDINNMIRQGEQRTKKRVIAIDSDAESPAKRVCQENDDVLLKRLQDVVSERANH

B1: SV-T: wild-type SV40 large T antigen (protein, UniProt P03070 1-708, looked up)
Large T antigen: MDKVLNREESLQLMDLLGLERSAWGNIPLMRKAYLKKCKEFHPDKGGDEEKMKKMNTLYKKMEDGVKYAHQPDFGGFWDATEIPTYGTDEWEQWWNAFNEENLFCSEEMPSSDDEATADSQHSTPPKKKRKVEDPKDFPSELLSFLSHAVFSNRTLACFAIYTTKEKAALLYKKIMEKYSVTFISRHNSYNHNILFFLTPHRHRVSAINNYAQKLCTFSFLICKGVNKEYLMYSALTRDPFSVIEESLPGGLKEHDFNPEEAEETKQVSWKLVTEYAMETKCDDVLLLLGMYLEFQYSFEMCLKCIKKEQPSHYKYHEKHYANAAIFADSKNQKTICQQAVDTVLAKKRVDSLQLTREQMLTNRFNDLLDRMDIMFGSTGSADIEEWMAGVAWLHCLLPKMDSVVYDFLKCMVYNIPKKRYWLFKGPIDSGKTTLAAALLELCGGKALNVNLPLDRLNFELGVAIDQFLVVFEDVKGTGGESRDLPSGQGINNLDNLRDYLDGSVKVNLEKKHLNKRTQIFPPGIVTMNEYSVPKTLQARFVKQIDFRPKDYLKHCLERSEFLLEKRIIQSGIALLLMLIWYRPVAEFAQSIQSRIVEWKERLDKEFSLSVYQKMKFNVAMGIGVLDWLRNSDDDDEDSQENADKNEDGGEKNMEDSGHETGIDSQSQGSFQAPQSSQSVHDHNQPYHICRGFTCFKKPPTPPPEPET

Tests used:
[1] = tested on: 107/402-T expression in HT-1376 tet-off clone; test: Doxycycline control of 107/402-T expression in HT-1376 tet-off clone (Western blot); type: cell-based; details: Homo sapiens, 96 h, Western blot 4 days after exposure, read-out: half-maximal inhibitory concentration for 107/402-T expression
From the text: To prepare a human cell line in which expression of 107/402-T would be under control of doxycycline, HT-1376 human bladder carcinoma cells were sequentially transfected with three plasmid constructs: (a) pTET-OFF, which encodes the tetracycline-controlled transcriptional transactivator (tTA) under control of the CMV immediate-early promoter and the neomycin resistance gene under control of the SV40 early promoter, (b) pTRE.107/402-T, which encodes 107/402-T under control of the CMV minimal promoter and contains the tetracycline operon (binding site of tTA just upstream of the CMV minimal promoter), and (c) pCMVhygro, which encodes the hygromycin resistance gene under control of the CMV promoter. HT-1376 cells were first transfected with pTET-OFF, and neomycin resistant clones of stable transfectants were characterized by transiently transfecting clones with pTRE.luciferase in the presence or absence of doxycycline. Clones which yielded significant luciferase activity only in the absence of doxycycline (but no detectable luciferase activity in the presence of doxycycline) were then co-transfected with pTRE.107/402-T and pCMVhygro. Again, single cell clones of stable transfectants were screened for high basal levels of 107/402-T and complete turn-off of 107/402-T expression in the presence of doxycycline.
Steady-state levels of 107/402-T are achieved by 3 days. […]

human RB = target: T1, human RB; type: binding
p107 = target: T2, p107; type: binding
p53 = p53 (Homo sapiens, UniProt P04637); type: binding
Chain of p53 (P04637 whole entry): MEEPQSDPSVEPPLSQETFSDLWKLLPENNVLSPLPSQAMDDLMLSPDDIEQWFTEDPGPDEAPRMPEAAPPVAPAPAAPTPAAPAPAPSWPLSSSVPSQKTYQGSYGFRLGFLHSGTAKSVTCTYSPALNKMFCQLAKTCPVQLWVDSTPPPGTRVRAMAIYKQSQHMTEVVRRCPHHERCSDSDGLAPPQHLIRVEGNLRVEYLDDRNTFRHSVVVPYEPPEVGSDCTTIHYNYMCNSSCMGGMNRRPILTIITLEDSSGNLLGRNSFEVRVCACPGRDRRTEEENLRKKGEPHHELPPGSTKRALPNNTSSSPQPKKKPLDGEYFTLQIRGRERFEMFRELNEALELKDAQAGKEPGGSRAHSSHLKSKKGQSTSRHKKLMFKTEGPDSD

T24 cell line = test: Soft agar cloning of T24 clones expressing T antigens; details: T24 single cell clones expressing T antigen (SV-T clone A7, 402-T clone G1); ± se
From the text: Transformed cells were trypsinized and then passed through a 30-micron nylon filter (Tetko, Lancaster, N.Y.) to achieve a single cell suspension. The bottom layer of agar consisted of low glucose DMEM supplemented with 10% fetal calf serum and 0.6% Seaplaque agarose (FMC BioProducts, Rockland, Me.). The top layer contained serial dilutions of cells ranging between 10^3 and 10^6 in low-glucose DMEM supplemented with 10% fetal calf serum and 0.3% Seaplaque agarose.

Molecule | IC50 [1] | Observed signal compared to T, binding to RB (human RB) | Observed signal compared to T, binding to p107 (p107) | Observed signal compared to T, binding to p53 (p53) | soft agar cloning efficiency (T24 cell line)
C[C@H]1c2cccc(O)c2C(=O)C2=C(O)[C@]3(O)C(=O)C(C(N)=O)=C(O)[C@@H](N(C)C)[C@@H]3[C@@H](O)[C@@H]21 [doxycycline] | ~0.01 ng/mL (≈ 0.0225 nM) | – | – | – | –
B1 | – | 100% | 100% | 100% | 0.10%±0.02%
